Data taken from the Immune Epitope Database (IEDB).

What was measured:
[1] = biological target: HLA-A*02:06; test: IEDB peptide-MHC binding, purified MHC/competitive/fluorescence; filed as Kd, often an IC50 or EC50 that approximates it; ≥ and ≤ were set here for values at or beyond the usual limits of such assays
[2] = biological target: HLA-A*02:03; test: as above; details: source organism: Campylobacter jejuni subsp. jejuni BH-01-0142
[3] = biological target: HLA-B*40:01; test: as above; details: source organism: Campylobacter jejuni subsp. jejuni BH-01-0142
[4] = biological target: HLA-A*31:01; test: IEDB peptide-MHC binding, purified MHC/direct/fluorescence; filed as Kd, often an IC50 or EC50 that approximates it; ≥ and ≤ were set here for values at or beyond the usual limits of such assays
[5] = biological target: HLA-B*58:01; test: as above
[6] = biological target: HLA-A*68:02; test: as above
[7] = biological target: HLA-B*46:01; test: as above
[8] = biological target: HLA-A*26:01; test: as above; details: source organism: Campylobacter jejuni
[9] = biological target: HLA-B*57:01; test: as above
[10] = biological target: HLA-A*26:02; test: as above
[11] = biological target: HLA-B*07:02; test: as above
[12] = biological target: HLA-B*15:17; test: as above
[13] = biological target: HLA-B*08:01; test: as above
[14] = biological target: HLA-A*11:01; test: as above
[15] = biological target: HLA-A*01:01; test: as above
[16] = biological target: HLA-B*08:03; test: as above
[17] = biological target: HLA-B*27:05; test: as above
[18] = biological target: HLA-B*15:01; test: as above
[19] = biological target: HLA-B*48:01; test: as above
[20] = biological target: HLA-B*08:02; test: as above
[21] = biological target: HLA-A*03:01; test: as above
[22] = biological target: HLA-A*02:01; test: as above
[23] = biological target: HLA-B*18:01; test: IEDB peptide-MHC binding, purified MHC/competitive/fluorescence; filed as Kd, often an IC50 or EC50 that approximates it; ≥ and ≤ were set here for values at or beyond the usual limits of such assays
[24] = biological target: HLA-B*46:01; test: as above
[25] = biological target: HLA-A*26:01; test: as above
[26] = biological target: HLA-B*57:01; test: as above
[27] = biological target: HLA-B*39:01; test: as above
[28] = biological target: HLA-B*15:17; test: as above
[29] = biological target: HLA-A*69:01; test: as above
[30] = biological target: HLA-B*27:03; test: as above
[31] = biological target: HLA-A*02:01; test: as above
[32] = biological target: HLA-B*51:01; test: as above
[33] = biological target: HLA-A*02:03; test: IEDB peptide-MHC binding, purified MHC/direct/fluorescence; filed as Kd, often an IC50 or EC50 that approximates it; ≥ and ≤ were set here for values at or beyond the usual limits of such assays
[34] = biological target: HLA-A*24:03; test: as above
[35] = biological target: HLA-A*02:19; test: as above
[36] = biological target: HLA-A*23:01; test: as above
[37] = biological target: HLA-A*29:02; test: as above
[38] = biological target: HLA-A*02:12; test: as above
[39] = biological target: HLA-B*18:01; test: as above; details: source organism: Vibrio parahaemolyticus
[40] = biological target: HLA-B*40:01; test: as above; details: source organism: Vibrio parahaemolyticus
[41] = biological target: HLA-B*15:01; test: IEDB peptide-MHC binding, purified MHC/competitive/fluorescence; filed as Kd, often an IC50 or EC50 that approximates it; ≥ and ≤ were set here for values at or beyond the usual limits of such assays; details: source organism: Zaire ebolavirus
[42] = biological target: HLA-A*02:16; test: IEDB peptide-MHC binding, purified MHC/direct/fluorescence; filed as Kd, often an IC50 or EC50 that approximates it; ≥ and ≤ were set here for values at or beyond the usual limits of such assays; details: source organism: Zaire ebolavirus
[43] = biological target: HLA-A*02:11; test: as above; details: source organism: Zaire ebolavirus
[44] = biological target: HLA-A*23:01; test: IEDB peptide-MHC binding, purified MHC/competitive/fluorescence; filed as Kd, often an IC50 or EC50 that approximates it; ≥ and ≤ were set here for values at or beyond the usual limits of such assays; details: source organism: Yersinia enterocolitica (type O:8)
[45] = source organism: Campylobacter jejuni
[46] = source organism: Giardia lamblia ATCC 50803
[47] = source organism: Vibrio parahaemolyticus RIMD 2210633
[48] = source organism: Vibrio parahaemolyticus
[49] = source organism: Zaire ebolavirus

Question: How did the Kd ([1]; source organism: Campylobacter jejuni subsp. jejuni BH-01-0142) turn out when VSIRGSHHK was run?
Answer: The Kd was 5.13 µM.

Question: And the Kd [2]?
Answer: Its Kd is 3.41 µM.

Question: What about the Kd [3] of the same sequence?
Answer: Its Kd is 3.19 µM.

Question: What about the Kd [4, 45] of the same sequence?
Answer: The Kd was 4.88 µM.

Question: And the Kd [5, 45]?
Answer: Its Kd is no less than 20 µM.

Question: And the Kd [6, 45]?
Answer: Its Kd is no less than 20 µM.

Question: What about the Kd [7, 45] of the same sequence?
Answer: Its Kd is no less than 20 µM.

Question: And the Kd [8]?
Answer: The Kd was no less than 20 µM.

Question: And the Kd [9, 45]?
Answer: The Kd was no less than 20 µM.

Question: What about the Kd [10, 45] of the same sequence?
Answer: Its Kd is no less than 20 µM.

Question: And the Kd [11, 45]?
Answer: The Kd was no less than 20 µM.

Question: What about the Kd [12, 45] of the same sequence?
Answer: The Kd was no less than 20 µM.

Question: What about the Kd [13, 45] of the same sequence?
Answer: Its Kd is no less than 20 µM.

Question: And the Kd [14, 45]?
Answer: Its Kd is 0.091 µM.

Question: And the Kd [15, 45]?
Answer: The Kd was no less than 20 µM.

Question: And the Kd [16, 45]?
Answer: Its Kd is no less than 20 µM.

Question: What about the Kd [17, 45] of the same sequence?
Answer: Its Kd is no less than 20 µM.

Question: What about the Kd [18, 45] of the same sequence?
Answer: The Kd was no less than 5 µM.

Question: What about the Kd [19, 45] of the same sequence?
Answer: The Kd was no less than 20 µM.

Question: What about the Kd [20, 45] of the same sequence?
Answer: Its Kd is no less than 20 µM.

Question: And the Kd [21, 45]?
Answer: Its Kd is 0.145 µM.

Question: And the Kd [22, 45]?
Answer: The Kd was no less than 20 µM.

Question: Which results are given for RIYDPLWFQ?
Answer: Kd [23, 46]: ≥ 20 µM; Kd [24, 46]: ≥ 20 µM; Kd [25, 46]: ≥ 20 µM; Kd [26, 46]: ≥ 20 µM; Kd [27, 46]: ≥ 20 µM; Kd [28, 46]: ≥ 20 µM; Kd [29, 46]: ≥ 20 µM; Kd [30, 46]: ≥ 20 µM; Kd [31, 46]: ≥ 20 µM; Kd [32, 46]: ≥ 20 µM; Kd [6, 46]: ≥ 20 µM; Kd [33, 46]: ≥ 20 µM; Kd [34, 46]: ≥ 20 µM; Kd [35, 46]: ≥ 20 µM; Kd [36, 46]: ≥ 20 µM; Kd [37, 46]: ≥ 20 µM; Kd [14, 46]: 2.93 µM; Kd [38, 46]: ≥ 20 µM; Kd [21, 46]: ≥ 20 µM

Question: Which results are given for VFMDNAFKK?
Answer: Kd [1, 47]: 0.291 µM; Kd [4, 48]: 2.21 µM; Kd [5, 48]: ≥ 20 µM; Kd [6, 48]: ≥ 20 µM; Kd [39]: ≥ 20 µM; Kd [7, 48]: ≥ 20 µM; Kd [9, 48]: ≥ 20 µM; Kd [10, 47]: ≥ 20 µM; Kd [11, 48]: ≥ 20 µM; Kd [12, 48]: ≥ 20 µM; Kd [40]: ≥ 20 µM; Kd [13, 47]: ≥ 20 µM; Kd [14, 48]: 0.131 µM; Kd [15, 48]: ≥ 20 µM; Kd [16, 47]: ≥ 20 µM; Kd [17, 48]: ≥ 20 µM; Kd [18, 48]: ≥ 20 µM; Kd [19, 48]: ≥ 20 µM; Kd [20, 47]: ≥ 20 µM; Kd [21, 48]: 1.38 µM; Kd [22, 48]: ≥ 20 µM

Question: What does the source list for HLSGWELAK?
Answer: Kd [23, 49]: ≥ 20 µM; Kd [24, 49]: ≥ 20 µM; Kd [25, 49]: ≥ 20 µM; Kd [26, 49]: ≥ 20 µM; Kd [27, 49]: ≥ 20 µM; Kd [28, 49]: ≥ 20 µM; Kd [41]: ≥ 20 µM; Kd [29, 49]: ≥ 20 µM; Kd [30, 49]: ≥ 20 µM; Kd [31, 49]: ≥ 20 µM; Kd [32, 49]: ≥ 20 µM; Kd [6, 49]: ≥ 20 µM; Kd [33, 49]: ≥ 20 µM; Kd [34, 49]: ≥ 20 µM; Kd [35, 49]: ≥ 20 µM; Kd [36, 49]: ≥ 20 µM; Kd [37, 49]: ≥ 20 µM; Kd [42]: ≥ 20 µM; Kd [38, 49]: ≥ 20 µM; Kd ([21]; source organism: Sudan ebolavirus - Maleo (1979)): 0.148 µM; Kd [43]: ≥ 20 µM

Question: How did the Kd [44] turn out when TYQVYRYII was run?
Answer: Its Kd is no more than 0.0001 µM.
